The domain aggregation screens of Martell et al. (2025)

Experiment: soluble fraction after stress (log2 fold change); higher = more stays soluble; pooled small domains, quantitative proteomics
Settings: stress: 75 degC
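Also: 20 min heating vs room temperature control held 20 min.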

Sequence	soluble fraction (log2)
HMIDIIEYIISEESKGLRADQGIALQNPQYSRSLIQKWIKKGSVLVNNKIIRTKEILLEGDKISITPEENI	-0.546
HMIDKIRYPELIMKLAHQQGGTIKRRDVEQLLHLQTKQAYRELSKLVDAGELVSVGRGPGAHYEVS	-0.316
HMIDQNEDLLSGYIDEVLSQNPDKVNEYLKGKSGLIGFFMGQIKQKSATALDAALLKSQLETALEKLRIK	-0.14
HMIDQSVVVQYLSKLTNTPYLKTREITMGEPYMQFERGEIKFQEYVEDIRALLPGGDRIDADRLRDIWMNS	-1.1
HMIDRADLWEALRKLPEDTLKLFSLHFEKGMTHDEISKHTDIPVGTVKTKLRRGLIEARKLAREF	-1.28
HMIDTPQELARLLRLLDEQNFEAEILFHKLRPDLLHLWSKEHVTRIAEALDAFDYQMALTLLNASP	-2.43
HMIDVNLVQRGKTLHLRRRVPMRYSSVERREYVSISLKTDSEAEARRKAGAAWDQMIAAWEARLA	-0.382
HMIDYTDTSAVKDSAAVAGRVREMINEGVPIADVNAFIRSASENGLISDDSARRLRYMNDSR	-0.0436
HMIEDMTINIEERLSLNGDIKKSEYILQYIKPDFIRKVILSPELNKGEIYIYDSKKKVMYLPLFDQVSEEI	-0.355
HMIEINNLEDLKLMKEFILKNGKYGFGVFVGGKYIGLSDIGSVNSFKDTLGLPVVSLGNDDFKRFTEAH	-1.07
HMIEQEQAFLEQVLKKYSQEELVLTVGSRTLVKYSAGQLERLLEHYPHVRLASSPVNGEAGFLLSRG	-0.0614
HMIEQIELEARVPDELGGQRLDQVAAQMFDDFSRSRLTGWIRDGSLTADGQQLRPRDIVYGGTLLQLKAEQ	0.132
HMIESFQNGLVEHDQFTRPNPWVTPNFSKIEVPSILLSGKHADIDLWKHQNSIENTKKNRPDLFKNYLKKN	-0.149
HMIEYILDYLANRGVYAASQGEQQQMEDGIARYLQENGLEDGNTGAYYQKYVSNHLQQISASDLKAYFLN	-0.946
HMIEYYDDEELDVFKGRQSDNYTNKEIEQFAEVLHTMRQDEVKGWNRSLILRSINLPDSLKDEVIMLI	-0.568
HMIFDPTTLPEKQLLVYGIISSHPGLNAKQISEMLTLKKSSIETAIKGLRKKEIIEYEGTTRNGG	-0.267
HMIFEEDILKEFRGSLIFITHDRRFLDNIATRIIELDRGKLLSFPGNFSAYKKAKNEQLANEAVENA	-0.439
HMIFEETVFKDIAFGPKNMGLSEAEIKRRVYETAENIGLSQELMERSPFELSGGQKRRVAIAGVMAMEP	0.268
HMIFELDSDRASAGNTIGKLVSKWNNTEVASVQFVSGDDTSNKDNASIYLNTRSGGSGNLVRLRITK	0.429
HMIFRPALITDLDAVERHYTELLTREAETGRSSTNWSLGVYPTRQTATAAQAAGTLWVLEREGQVVASVI	-0.0961
HMIFTPNGDRVNDVFEIEMGVKLEFQIIILNQQNQTVFKSADPDFKWDGTMLNGEPAPSGTYLYYFSAKD	0.207
HMIGERIKRARAAAGLSMQALGKQVGISANMVKKYEHDQSMPSSGVLLKLATALSVRTEYFFRPA	-1.38
HMIGGASVFKQFLPLADKMLLTLIHSEFEGDTYFPVFSEKEWLLQESSSLLSATGYQLSFQTYIR	0.0107
HMIGGEDEILKVVLEVLEEKPEAIEQYKNGRTNIVDFLVGQVMKKTRGQANPATTREFMIREIEK	-0.522
HMIGKDLLGYEVFSESGDLVGILKDVMWLPHSDVYVITNGGKELLIPVIPEVVKGINHEQGVIVISPM	0.394
HMIGPYAAAKLMTNKDFVKWLSGGVEKSVFNPNSFGQHIRRLVQISEVNPDIRDEINAVVQGLTQ	-0.445

Sequence	soluble fraction (log2)
HMIGRIKGQLIEKKSDSVVIDVHGIGYVVYVTEKTARSLTLGDQSRDISLYSELLVKEDLLQLVGFI	-0.075
HMIGRRLKVARASAGLSLRELAARMDGVVTPQAIGKYERNEDMPGSRALMALASALGVSEGYLLSD	-1.38
HMIHDSAESVVFPFGKYKGYTLAHVIREHPHYTYWIRDNADFSPLWREAVSLALQNRDIGHLNLPHVK	-0.222
HMIHMNMGQKINQLRLQKGFTLEELGNLVGVGKSTVRKWENGMIANMKRDKILLVAEALDTSPAYLMGWD	-2.12
HMIIENIVVEIKGEVYNPGLYILEQGSRINDLIELSGGFTKDANGTDLNLAKVLSDGEVIIVSKKG	-1.29
HMIIIMKPNASEEAVRKVTHIIESKGLQVHLSKGSQVTIVGVVGDKTRLQGSNIEISEGVDKVVAVT	-1.22
HMIILDASASRAIGNGTIEETKWDFGNGESSTNRGGPIVERQIYANQAAYILKLSMKTNDGQLFTKEIQLL	0.162
HMIINKFERRKEIQIQFNNQERIKFKDFFLNLSKENIIVSFLILLELVRESLIDFSGTNENDIEFFIK	-2.38
HMIITTPYKVTASAINIRSGRGTSYSIIGTVSKGQTVDVYNNSLSKGWVKVKFSGSVGYAYAKYLEK	-1.62
HMIIVMSANANAREISEVIARIRAMGYDVHLSHGKERTIIGVIGRGTPIDREQLSLMSGVQQVMPV	-2.44
HMIKIEDILNVESVELSDSEYKKFLNGILINVKNLENGWAKVYSGNEFKGFGIVDKNLLKRKIVID	-1.49
HMIKIEDYTNKDYNKVEASLEVKGLVVNIEYKAVDDKAKYKGKEDLIIDQSVKKDATLVKGDTIILYLPK	-1.21
HMIKISDYLSEEDLNFIKEMEKIYPYFDFDSEGNLILTKSIDELKDKYGFDEAFVSRLDTVLNSR	0.108
HMIKITLGWVISVRRHDLGYTQHKMARAVGISDLTVSRIESDDGITPDNNTLRKIAEYLKIDYNSLLTLK	-1.37
HMIKLIKKDTNISELKMSKMPWDVMLYGKPYQVVSIKGYVHTIGGRRGENDLWMYPRDESPTYENLIEFQ	-2.19
HMIKNKDRIQYTLAHRKAFRKIEKELLGYNTFRSLFHDLDKVFLYPFFDYKKVHNFHRNHAHH	0.132
HMIKRETNDNPVDPASLSLGDRVKILTLNQNGEIISLPDEKGLLQVQVGIMKIGVNVSDIMLI	-0.9
HMIKRITDEQHPVDVDRLLVVTFTNAAASEMRERIGDAIEAALEKDPYNQHLQRQLTLVHNAQITTIDS	0.171
HMIKSEERIQNIKEYILEFQFTYHRTPTMAQIAEAVGTVKSNVYKYLSEMEERGILTRNKREIEINDTIQ	-0.807
HMIKSMTGYGSAKGTVEGIEVSVELKSVNNKFLDTSIRLPRSFLFAEETIKQAVSSHISRGKVDVFVSVDS	0.587
HMIKYTIEELGELTGFTRRTIRYYVQEGLIDPPAGRGRGGFYYDSHVQQLLRIKSFQEKGIGITAMVSLM	-2.32
HMILEEIIGKNIARYREAAGLTQATLAEKIGISTAFVSRVERGQKKMKVETLYATAKVLNVSVDALLS	-2.61
HMILKNVPSNLVNQRLDKVATVLFQTYSRTQIKKWILEGRLLVNGEISNPKDLVNENDEIEINPI	-2.95
HMILKQTHIVQELTGPIRLQEYGVGIFQQISTKSALKKALKKNQITVDGVVGSTATFIKGGEIIIYHVTE	-2.67
HMILNDRSELLDVVKRVIAANPASVADYRKGKKKVLGFLVGQAMKETKGQADPRILNELFLQELGEN	0.108
HMILNNAKINTELNSLAEFTQRSLDSNTSEIGFYDYKKISYIASFATMKTTNWNVIIRAPINEFMGTVN	0.126

Sequence	soluble fraction (log2)
HMILQTLSERVTETLRDWILHGHFKPGDKIEEVPIAERMGVSRTPVRAAFATLTNEGLIDHQPNRGYQVRV	-0.496
HMILSTNFFRHIVPKEYQTSYGTMKKWLTDHNVIGTNSIPQGIGYRIPTQGLSSTFSFKVVDVLPDR	-0.986
HMIMDQTILRKQRELTDRLNRYRNEYYNHNKPSVSDEVYDRLFDELQSLEKETGVQMANSPTTTVG	-0.0853
HMIMGTITKRTNPSGAIVYRAQIRIKKAGYPDFSESRTFSKKAMAVEWLKLREAELEMHPELLFR	-2.35
HMIMHLNQIIRNKRLAAGLTQEALAQKVGVTAPAVSKWEKGISYPDITLLPILARNLNTDVNTLLDFSA	-1.29
HMIMNLNVLANNVRRLRTAQRLSQSALASKAGLSVPAIKNLENARNEPRVNTVQVIAHALEVRLQDLFAPT	-1.81
HMIMTEKEKKLLNRYIMHDTIHKLYHEQNKSMRWIADNLGINFRTVQKYLDMDSGEFQKYSESISNR	-0.97
HMIMTIYEYIARNNPTGAKRVIESFGYVVTQPKKMGDNLRMLVAQEGEPALKAVVDLHPDKDLILEV	-2.69
HMINAQETEIYRFLIEKANRLYSMVLGLKREELMTATRQFEEEVKHSSIHHLPKIYQAFSSYLELLERG	-1.2
HMINDKLQHLFSLFPAMDKELKRKGITRQILWVEYKKQYPLGFGRSQFNSYFAAWKAQVSPS	-1.98
HMINFLSKREIEVLRLVADGLSNRDVGQYLFISESTVKRHLSTIYEKLAVKSRTQAIDHARRADL	-3.6
HMINGTITFYDDTTLKGELSSLDTKYLFIIPNGLVMPEKIAVSDIEYFNLDNGITLIQDGISKQTY	-1.09
HMINLGDLEVGHTYHTRMPILQNDLKYSHKSPIQIVAEHSIVYGVRVYIGFLNEHRVLVTADDV	0.0105
HMINLRTALNNAGVMQKELSDILYMTPQDVNRRFSGVTKWKPLEKRAIMQFLEDRGFEYTEEQLF	-0.564
HMINLVPFELKFITAQVLDDIIKKIGINADTIILDINPKKIWVYAGEQELSDIQNIVKNVDVEDNI	-1.71
HMINVLTPKQIEATTIAVKYGYYENPRTVSMRELSEISGIARSTLQEHLSKAEAALMILAAKSQL	-0.365
HMINVVDEVIKHLETNIISGFWAPGQKIDSEATLSKQLNVSRASIHTAIQQLIATGVLESFQGKGTFVRS	-0.305
HMIPDGKWKEDPISDGQKNFINSLIEQAIDAGQDELGAEAKKYLASGEATKGNASAMIDKLKSAL	0.39
HMIPDMSLELAMSEQTSKGDLYGDLPNDKLALMFNAISKKVPHTDDHKRKMVAIQTILESRAS	-0.415
HMIPEGKWMEDPISEGQIKFIETLIKQAIDSGQDALGAEAKQYLSSGEATKGNASSMIDKLKDAL	0.433
HMIPEILNGYTKWGDDEPFEDHAGPFYMKMMPSTGRHLSAFIPEQRHMNGGGFLHGGMLMSFADYALFVI	0.244
HMIPEKEISYMMPDGFMPKELKIIHITESGRKQIYSAAHKPLDLVNVKAPFVPNTKVQIYINDVPIEELKI	-1.01
HMIPKDKQAWIALTYIYGVGRTTSMEILKKAQVGEEIRMKDLTEEEVTRIRNIIDKEYEVEGDLRRN	-0.252
HMIPNEKEAARWDALTAEHTAKLNALEGDALDKVGSHEDVSIKRAGVGDAAFREKILSRTHPDDLERALST	-0.0132
